Measurements published in patent US20200165345A1 (GlaxoSmithKline, published 2020).

B1: 8E5 (antibody, mouse IgG1, kappa, V domains shown)
VH: EVQLVESGGDLVKPGGSLKLSCAASGFTFSTYGMSWVRQTPDKGLEWVATVSTGGTYTYYPDSVKGRFTISRDNAKNTLYLQMSSLKSEDTAMYYCARGGYSFAYWGQGTLVTVSA
VL: ENVLTQSPAIMSASPGEKVTMTCRASSSVSSSYLHWYQQKSGVSPKLWIYSTSNLASGVPARFSGSGSGTSYSLTISSVEAEDAATYYCQQYSGYPLTFGAGTKLELKR
B2: Humanised 1G11 (antibody, human IgG1, kappa, V domains shown)
VH: QVQLVQSGAEVKKPGSSVKVSCKASGYTFTSYYINWVRQAPGQGLESMGRIAPGNTYYNEIFKGRVTITADKSTSTAYMELSSLRSEDTAVYYCARRGYEGALDYWGQGTLVTVSS
VL: EIVLTQSPATLSLSPGERATLSCRASQRISNNLHWYQQKPGQAPRLLIKYVSQSISGIPARFSGSGSGTDFTLTISSLEPEDFAVYYCQQSNSWPLTFGQGTKLEIKR
notes: Straight graft of 1G11 CDRs with serine at Kabat position 47 of the heavy chain (H7, Lo1); human IgG1 Fc with L235A and G237A (EU numbering), Fc-disabled; also called humanised 1G11 (H7, Lo1); copies: 2 + 2
B3: 3A3 (antibody, mouse IgG1, kappa, V domains shown)
VH: QVQLQQSGAELAKPGASVKMSCKASGYTFSSYWMHWVKQRPGQGLEWIGYINPSTGYTDYNQKFKDKATLTADKSSNTAYMQLSSLTSDDSAVYYCARSRAARYWGQGTTLTVSS
VL: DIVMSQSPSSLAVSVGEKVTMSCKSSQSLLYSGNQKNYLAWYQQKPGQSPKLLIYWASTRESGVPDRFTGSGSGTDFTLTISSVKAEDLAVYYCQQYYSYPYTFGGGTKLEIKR
B4: 1G11 (antibody, V domains shown)
VH: QVQLQQSGDDLVKPGASVKLSCKASGYTFTSYYINWIKQRPGQGLECIGRIAPGNTYYNEIFKGKAILTVDTSSSTAYIQLSSLSSEDSGVYFCARRGYEGALDYWGQGTSVTVSS
VL: DIVLTQSPATLSVTPGDSVSLSCRASQRISNNLHWYQQKSHESPRLLIKYVSQSISGIPSRFSGSGSGTDFTLSINSVETEDFGMYFCQQSNSWPLTFGAGTKLELKR

Legend:
[1] = target: T1, human full-length TrkB receptor (human, UniProt Q16620 32-822); experiment: cell-based or functional assay
T1 sequence (Q16620 32-822 limits assumed): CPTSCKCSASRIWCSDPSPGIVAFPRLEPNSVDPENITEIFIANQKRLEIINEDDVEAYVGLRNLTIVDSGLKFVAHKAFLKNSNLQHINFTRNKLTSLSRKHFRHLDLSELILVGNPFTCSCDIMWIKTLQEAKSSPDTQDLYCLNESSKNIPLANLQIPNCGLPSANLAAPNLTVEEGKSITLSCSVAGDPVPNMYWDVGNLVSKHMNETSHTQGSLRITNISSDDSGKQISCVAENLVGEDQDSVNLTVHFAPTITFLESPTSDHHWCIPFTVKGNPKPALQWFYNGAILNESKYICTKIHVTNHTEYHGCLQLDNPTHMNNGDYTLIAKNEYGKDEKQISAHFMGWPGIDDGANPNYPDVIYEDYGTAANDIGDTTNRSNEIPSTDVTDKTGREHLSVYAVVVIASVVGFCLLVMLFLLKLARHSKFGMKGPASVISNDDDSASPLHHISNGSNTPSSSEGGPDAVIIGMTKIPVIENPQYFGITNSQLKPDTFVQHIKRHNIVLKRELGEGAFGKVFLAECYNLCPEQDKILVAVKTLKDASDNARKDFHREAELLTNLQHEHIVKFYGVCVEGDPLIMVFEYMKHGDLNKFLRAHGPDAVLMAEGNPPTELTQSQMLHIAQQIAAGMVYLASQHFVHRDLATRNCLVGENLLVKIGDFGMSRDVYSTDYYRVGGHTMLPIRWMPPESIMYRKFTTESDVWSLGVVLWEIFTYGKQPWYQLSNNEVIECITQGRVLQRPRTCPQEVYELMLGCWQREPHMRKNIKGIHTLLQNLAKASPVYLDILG

[2] = target: T1, human full-length TrkB receptor; experiment: cell-based or functional assay; remark: listed apart in the source
rat TrkB receptor = target: T2, rat TrkB receptor (rat, UniProt Q63604 32-821); experiment: method not detailed
T2 construct: whole, on cells; also called rodent TrkB
T2 sequence (Q63604 32-821): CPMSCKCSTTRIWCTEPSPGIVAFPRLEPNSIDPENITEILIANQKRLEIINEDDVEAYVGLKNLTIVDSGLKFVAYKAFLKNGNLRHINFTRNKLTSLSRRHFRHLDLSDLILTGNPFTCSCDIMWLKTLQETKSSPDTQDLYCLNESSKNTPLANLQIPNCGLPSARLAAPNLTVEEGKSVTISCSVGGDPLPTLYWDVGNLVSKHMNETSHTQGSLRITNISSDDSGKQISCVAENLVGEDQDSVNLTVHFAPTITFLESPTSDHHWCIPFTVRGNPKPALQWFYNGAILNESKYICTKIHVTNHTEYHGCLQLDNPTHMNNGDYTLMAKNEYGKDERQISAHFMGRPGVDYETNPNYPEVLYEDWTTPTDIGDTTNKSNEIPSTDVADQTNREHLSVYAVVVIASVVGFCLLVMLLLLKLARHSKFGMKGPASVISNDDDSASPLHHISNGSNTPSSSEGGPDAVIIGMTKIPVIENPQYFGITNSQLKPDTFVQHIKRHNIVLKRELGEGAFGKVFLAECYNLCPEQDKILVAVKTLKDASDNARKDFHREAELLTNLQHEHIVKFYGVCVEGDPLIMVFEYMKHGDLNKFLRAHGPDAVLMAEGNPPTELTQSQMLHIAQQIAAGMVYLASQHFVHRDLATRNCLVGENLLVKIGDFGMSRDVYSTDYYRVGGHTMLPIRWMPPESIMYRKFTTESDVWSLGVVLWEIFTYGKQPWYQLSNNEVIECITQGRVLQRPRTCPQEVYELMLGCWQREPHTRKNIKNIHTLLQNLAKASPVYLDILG

mouse TrkB receptor = target: T3, mouse TrkB receptor (mouse, UniProt P15209 32-821); experiment: method not detailed
T3 construct: whole, on cells; also called murine TrkB; rodent TrkB
T3 sequence (P15209 32-821): as the sequence (Q63604 32-821) above, with M3T, T9S, T10A, I32V, K63R, G84S, T153M, I185L, T394S, N770S counted along it

[3] = target: T1, human full-length TrkB receptor; experiment: cell-based or functional assay; remark: listed apart in the source

Row | Binder | Potentiation of BDNF-induced agonism of TrkB (pTrkB, % of BDNF alone) [1] [%] | cell survival, PC12 cells expressing human TrkB, EC50 [2] [nM] | neurite outgrowth, PC12 cells expressing human TrkB, EC50 [2] [nM] | binding result (rat TrkB receptor) | binding result (mouse TrkB receptor) | levels of phosphorylated TrkB in CHO-K1 cells, EC50 [2] [nM] | EC50 (read off the curve); pTrkB relative activity in the presence of 10 nM BDNF [3] [nM] | Activation of TrkB (pTrkB, Y515), EC50 [1] [nM]
1 | B1 | ~120 | 0.09 | 1.58 |  |  |  |  | 
2 | B2 |  |  |  | binds | binds | 0.65 |  | 
3 | B3 | ~160 | 0.006 |  |  |  |  | ~0.7 | 
4 | B4 | ~130 |  |  |  |  |  | ~10 | 3.1
